The values that follow come from IntAct's records for PubMed 32433612.

The test concerns the target tasl_human TASL (UniProt Q9HAI6).
For “Solute carrier family 15 member 4 (Homo sapiens), Q8N697 E44A”, the “effect of a mutation on the interaction” value is recorded as “with no effect”.

For the substance “Solute carrier family 15 member 4 (Homo sapiens), Q8N697 E47A”, the “effect of a mutation on the interaction” value is “with no effect”. In the case of “Solute carrier family 15 member 4 (Homo sapiens), Q8N697 E465A”, the “effect of a mutation on the interaction” value is “disrupting interaction strength”. On to “Solute carrier family 15 member 4 (Homo sapiens), Q8N697 E465K”, for which the “effect of a mutation on the interaction” value is recorded as “disrupting interaction strength”. For “Solute carrier family 15 member 4 (Homo sapiens), Q8N697 L14A;L15A”, the “effect of a mutation on the interaction” value is “with no effect”.
